Assay results published in patent US20110223176A1 (AbbVie / Abbott, published 2011).

Assays:
[1] = molecular target: T1, cynomolgus monkey BSG2 on the cell surface (cynomolgus monkey); assay: cell-based ECL (MSD) binding on whole cells expressing cynomolgus BSG2
T1 construct: whole, on cells; also called BAF3-cyno BSG2; Cyno BSG2
Experimental: (§1) Cells were plated at 25,000 cells/well in 25 μl PBS using 96 well MSD high binding plates (MSD, catalogue no. L11XB-3), and incubated at 37° C. for 1 hour. 25 μl/well of blocking solution (30% serum in PBS) was added to the plates for 30 minutes at room temperature with mild agitation. Plates were then incubated with 25 μl/well of BSG2 antibodies (10 μg/ml) diluted in assay buffer (10% serum in PBS) for 1 hour at room temperature with mild agitation, and then washed 3× with PBS. Goat anti-mouse or anti-human IgG sulfotag was added at 1 μg/ml for 1 hour with mild agitation, and plates were washed 3× with PBS. After the final wash, plates were incubated with 2×MSD surfactant-free read buffer (catalogue no. R92TD-2) and the signal was detected on a MSD SECTOR Imager 6000. Data were analyzed using Graphpad Prism software and EC₅₀ values were reported.
(§2) BSG2 antibody binding activities against whole cells expressing human or cynomolgus monkey BSG2 were assessed by ECL using MSD technology (described in Example 1.3) and the receptor binding assay (described in Example 1.4) and are shown in Table 11.

[2] = molecular target: T1, cynomolgus monkey BSG2 on the cell …; assay: receptor binding assay, Eu-labeled antibody on cells expressing cynomolgus BSG2
Experimental: Cell lines expressing BSG2 were harvested and washed once in assay buffer (PBS, 0.1% BSA, 0.02% Na Azide, 10 mM EDTA) and resuspended to 5×10⁶ cells per mL. Serial 1:2 dilutions of ⁺³Eu-labeled anti-BSG2 antibody stock in assay buffer were made for final concentrations ranging from 1.6×10⁻⁸-7.7×10⁻¹² M, and a 4 mg/mL solution of unlabeled anti-BSG2 antibody was also prepared. To 96 well round bottom plates, 25 μl of ⁺³Eu-labeled antibody dilutions were added to 25 μl buffer (total counts), or 25 μl of unlabeled antibody were added to 25 μl buffer (background counts). 50 μl of cells at 2.5×10⁵ cells per well were then added to all samples, mixed gently, and incubated on ice for 1 hour. […] Signal was determined by incubating samples with 150 μL/well of enhancement buffer and read using Envision. The specific counts were determined by subtracting the background counts (cells+labeled antibody+excess cold antibody) from the corresponding total counts (cells+labeled antibody) for each antibody concentration. The labeled antibody concentration versus total counts was analyzed using Graphpad Prism 4 to calculate Kd and Bmax values.
as §2

[3] = molecular target: T2, human BSG2 (basigin isoform 2) on the cell surface (human, UniProt P35613 140-385); assay: cell-based ECL (MSD) binding on cells expressing human BSG2
T2 construct: Presented on stably transfected BAF3 cells or endogenously on human tumor cell lines (HepG2, MiaPaCa-2, DoHH-2); also called hBSG2; CD147
T2 sequence: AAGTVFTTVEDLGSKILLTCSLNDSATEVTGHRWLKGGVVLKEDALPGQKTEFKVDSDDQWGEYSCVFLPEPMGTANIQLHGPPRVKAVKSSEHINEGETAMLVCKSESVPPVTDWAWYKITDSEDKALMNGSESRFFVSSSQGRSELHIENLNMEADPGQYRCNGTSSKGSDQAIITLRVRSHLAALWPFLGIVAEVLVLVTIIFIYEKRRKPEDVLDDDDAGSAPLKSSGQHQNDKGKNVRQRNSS
Experimental: as §1
Select humanized variants were also tested for their functionality using ADCC and cell viability assays (described in Examples 1.6 and 1.7).

[4] = molecular target: T3, cynomolgus monkey BSG2 extracellular domain (cynomolgus monkey); assay: SPR (Biacore), mAb captured by anti-mouse Fc, BSG2 ECD injected, 25 C
T3 construct: extracellular domain; also called Cynomolgus BSG2 ECD
Experimental: (§3) Binding of BSG2 antibodies to a purified recombinant BSG2 extracellular domain (ECD) was determined by surface plasmon resonance-based measurements with a Biacore® instrument (either a Biacore 2000, Biacore 3000, or Biacore T100; GE Healthcare, Piscataway, N.J., US). The assay format for mAb affinity analysis was Fc-based capture via immobilized anti-Fc IgG. A standard amine coupling protocol was employed to immobilize Fc-specific IgG via primary amines to the carboxy-methyl (CM) dextran surface of CMS sensorchips. For the study of mouse anti-human BSG2 mAbs, anti-mouse Fc was used as the immobilized capture reagent. An automated protocol, available on the Biacore 2000, was used to immobilize 8000-10000RU of capture reagent in all 4 flowcells of the sensorchip. Binding was recorded as a function of time and kinetic rate constants were calculated. In this assay, on-rates as fast as 10⁷M⁻¹ s⁻¹ and off-rates as slow as 10⁻⁵ s⁻¹ can be measured.
(§4) Briefly, the CM-dextran surfaces were activated by freshly prepared 1:1 […] 3-(N,N-dimethylamino)propyl-N-ethylcarbodiimide (EDC). Then the anti-Fc IgG capture reagent (20 μg/ml in 10 mM sodium acetate, pH 4.5) was applied to the surface followed by deactivation of the surface and blocking of the residual reactive sites with 1M ethanolamine (pH 8.5). The running buffer employed was PBS-PB [1×PBS (Sigma P3813), pH 7.4, 0.005% P20 surfactant, 0.1 mg/ml BSA (Sigma-A7906)] and the assay temperature was 25° C. All reagents were diluted into running buffer to the specified concentrations. Each experimental cycle consisted of the following steps: (1) anti-BSG2 mAbs at 0.5 to 1 μg/ml were captured in flowcells 2, 3 or 4 to a level of 100-120RU. All measurements were referenced against flowcell 1 which had no captured anti-BSG2 mAb; (2) human BSG2 ECD was injected through all 4 flowcells, 240 μl at 80 μl/min. After the antigen injection, dissociation was monitored for 600 seconds at 80 μl/min; and (3) the anti-Fc capture surface was regenerated with 10 mM glycine, pH 1.5.
(§5) The BSG2 antibody binding affinities were determined by the BIACORE technology as described in Example 1.2. Table 10 represents the antibody binding kinetics against human and cynomolgus monkey BSG2 extracellular domain (ECD).

[5] = molecular target: T4, purified recombinant human BSG2 extracellular domain (human, UniProt P35613 22-325); assay: as above
T4 construct: also called Human BSG2 ECD
T4 sequence: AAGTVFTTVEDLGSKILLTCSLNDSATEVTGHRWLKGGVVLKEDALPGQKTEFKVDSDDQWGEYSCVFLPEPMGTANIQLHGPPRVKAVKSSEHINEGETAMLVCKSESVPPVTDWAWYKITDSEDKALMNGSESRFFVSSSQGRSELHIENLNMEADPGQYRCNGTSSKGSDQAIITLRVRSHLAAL
Experimental: as §3, §4, §5

B1: mouse anti-human BSG2 monoclonal antibody ML64-6A11-3A3 (antibody, mouse IgG2a, V domains shown)
VH: EVKLEESGGGLVQPGGSMKLSCVASGFTFSNFWMDWVRQSPEKGLEWIAGIRLKSYNYATHYAESVKGRFTISRDDSKSSVYLQMNNLRAEDTGIYYCTDWDGAYWGQGTLVTVSA
VL: DIVMTQSHKFMSTSVGDRVSITCKASQDVSTDVAWYQQKPGQSPKLLIYSASYRYTGVPDRFTGSGSGTDFTFTISSVQAEDLAVYYCQQHYSTPFTFGSGTKLEIK
notes: Hybridoma antibody, mouse IgG2a/kappa; also called 6A11-3A3 parental mouse antibody; Ab 3A3
- EC50 [1]: 7.6 nM
- Kd [2]: 3.6 nM
- EC50 [3]: 0.6 nM
- Kd [4]: 440 nM
- koff [4]: 0.149 s⁻¹
- kon [4]: 338000 M⁻¹ s⁻¹
- Kd [5]: 1.5 nM
- koff [5]: 0.00059 s⁻¹
- kon [5]: 400000 M⁻¹ s⁻¹
